Assay results: paper PMC11040377 (2024)

Target: Tau-biotin monomer (human, UniProt P10636-8 1-441, biotin (Sulfo-NHS-LC-Biotin))

Kd: > 2000 nM
B1: Lag3 (lymphocyte-activation gene 3), on transfected SH-SY5Y cells (receptor)
chain: GPGKELPVVWAQEGAPVHLPCSLKSPNLDPNFLRRGGVIWQHQPDSGQPTPIPALDLHQGMPSPRQPAPGRYTVLSVAPGGLRSGRQPLHPHVQLEERGLQRGDFSLWLRPALRTDAGEYHATVRLPNRALSCSLRLRVGQASMIASPSGVLKLSDWVLLNCSFSRPDRPVSVHWFQGQNRVPVYNSPRHFLAETFLLLPQVSPLDSGTWGCVLTYRDGFNVSITYNLKVLGLEPVAPLTVYAAEGSRVELPCHLPPGVGTPSLLIAKWTPPGGGPELPVAGKSGNFTLHLEAVGLAQAGTYTCSIHLQGQQLNATVTLAVITVTPKSFGLPGSRGKLLCEVTPASGKERFVWRPLNNLSRSCPGPVLEIQEARLLAERWQCQLYEGQRLLGATVYAAESSSGAHSARRISGDLKGGHLVLVLILGALSLFLLVAGAFGFHWWRKQLLLRRFSALEHGIQPFPAQRKIEELERELETEMGQEPEPEPEPQLEPEPRQL
